Experimental data: the nanobody polyreactivity screen of Harvey et al. (2022)

test: yeast display, Sf9 membrane polyspecificity reagent, FACS + sequencing; frameworks hold sequencing errors
Outline: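 Sorting gates, low and high (top ~1%), were placed on anti-HA fluorescence to track expression and on streptavidin fluorescence to track reagent binding. A clone's polyreactivity label is taken from the gate it came out of. The reagent was 10% biotinylated, detergent-solubilized Sf9 membrane, applied for 1 hour at 4 °C to galactose-induced yeast display cells.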

| Sequence | polyreactivity (PSR sort gate) |
| --- | --- |
| HVQLVESGGGLVQAGGSLRLSCAASGSTFTYYAMGWYRQAPGKERELVAAITGSDGRTYYADSVKGRFTISRDNAKKTVYLEMNSLKPEDTAVYYCATDVPIREIDEFGYWGQGTQVTVSS | low polyreactivity |
| HVQLVESGGGLVQAGGSLRLSCAASGSTFYRNAMGWYREAPGKEWEFVADITLGGGSTYYADSVKGRFTISRDNAKNTVYLQMNSLKPEDTAVYYCAVDYWQLNYDYWGQGTQVTVSS | low polyreactivity |
| HVQLVESGGGLVQAGGSLRLSCAASRRTFGWYAMGWYRQAPGKERELVAAISLSGGSTYYADSVKGRFTISRDNAKNTVYLQRNSLKPDVTAVYDCAAADYWLGYDYWGQGSQVTVSS | low polyreactivity |
| HVQLVESGGGLVQAGGSLRLSCAASVFILSPNTMGWYRQAPGKERELVAAISSDVSTYADSVKGRFTISRDNAKNTVYLQMNSLKPEDTAVYYCNADDFGYASYEYWGQGTQVTVSS | low polyreactivity |
| HVQLVESGGGLVQEGGSLRLSCAASGSILALYAMGWDRQAPGKERELVAAISSGDSTSYADSVKGRFTISRDNAKNTVYLQMNSLKPEDTAVYYCAADRPIYPYPGKGFRYDYWGQGTQVTVSS | low polyreactivity |
| HVQLVESGVGLVQAGGSLRLSCEASGFIFIRYAMGWYRQAPGQERELVASISSGGSTYYADSVKGRFTISRDNAKNTVYFQMNSLKPEDTAVFYCAAVFSKGLEGDYWGQGTEVTVSS | high polyreactivity |
| HVQQQESGGGLEQAGGSLRLSCAASGNISYSRNMGWYRQAPGKERELVAAIDRGAITYYADSVKGRFTISRDNAKNTVYLQIYSLKPEDTAVYYCAAVYHDRWDHRYWGQGTQVTVSR | high polyreactivity |
| HVQQQESGGGLVQAGGSLRLSCAASGYISVFIGMGWYRQSPGKERELVASIAYGAITYYTDSVKGRFTMSRDYAKNTEYLQMNSLKPEDTAVYYCATRRYYRYYNFWYYYWGQGTQVTVSS | high polyreactivity |
| HVRLQESGGGLVQAGGSLRQSCAACGAISPYYDMGWYRLAPGKEREFVASIAHGGTTYYADSVKGRFTTSRDNAKNTVYLQMKSMKTEDTAVYYCAVDYDVWHSHIYRGQGTQVTVSS | high polyreactivity |
| IIQAGGSLRLSCAASGRTFSGYARGWYRQAPGKERELIADITSGGSTYYADSVKGRFTISRDNAKNTVYLQMNSLKPEDTAVYYCSRDDRLAGDYWGQGTQVTVSS | low polyreactivity |
| KDQLVESGGGLVQAGGSLRLSSAASGIRFYVHSMGWYRQAPGKERELDASITSSGGSTYYADSVKGRFTISRDKATNSVYLQMNSLKPEDTAVYYCNKERWPVTYREYDYWGQGTQVTVSS | low polyreactivity |
| KVHLVESGGGLVQAGGSLRLSCAASGRIFRYYAMGWYRHAPGKERELVAAIRYLGASTYYADSVKGRFTISRDNAKNTVYLQMNSLKPEDTAVYYCNRTPRSKGNYWGQGTLVTVSS | high polyreactivity |
| KVQLVESGAGLVQAGGSLRLSCAASVSNFTSHAMGWSRQAPGKEREFVAAISVGGGITYYADSVKGRFTISRDHEKNTVYLQMNSLNPEDTAVYYCDADGEYPHSDDFEYWGQVTQVTVSS | low polyreactivity |
| KVQLVESGGGLDQAGGSLRLSCAASGIIFAYNVMGRYRQAPGKERELVAAIRWGGGSTYADSVKGRFSISRDNAKNTVYLQMTRLKPEDTAVYYCNVERWWWSRTYCVKYDYWGQGTQVNVSS | high polyreactivity |
| KVQLVESGGGLVQAGGRLRLSCAASGFIFVPYPMGWYRQAPGKERELVATITGRGDSTYYADSVKGRFTISRDNAMNTVYLQMNSLKTDDTAVYYCAVDPIRLWAYDYWGQGTQVNVSS | low polyreactivity |
| KVQLVESGGGLVQAGGSHRLSSAASGSTFDGYVMGLYRPAPGKERELVDAISSTGTRTYYADSVKGRFTISRDNATNTFYLQINSMKPEDTAVYYCAAEIDYRYRTVSYYYWGQGSQVTVSS | low polyreactivity |
| KVQLVESGGGLVQAGGSLLLSCAASGRTFTYNAIGWYRQARGTERELVAVITNSGGSTYYADSVKGRYTISRDNAKNTVYLQRNRLKPEDTAVYYCAADYFSRYWYRFYYWGQGTQVTVSS | high polyreactivity |
| KVQLVESGGGLVQAGGSLRLSCAASGFTLGYYAMGWYRQEPGKEREMVAAITSGGGTNYADSVKGRFTISRDNAKNTVYLQMNSLKPEDSAVYYCAARARWIYGMYSWGQGTQVTLSS | low polyreactivity |
